Experimental data from PMC3206016, “Putting into Practice Domain-Linear Motif Interaction Predictions for Exploration of Protein Networks” (PLoS ONE, 2011).
Ends that are not written are not given here. * marks the point of attachment. Biotin = O=C1N[C@H]2[C@H](CS[C@H]2CCCCC(=O)*)N1

B2: MAGI1-2/6 (MBP fusion of the second of the six PDZ domains of MAGI1) (domain or fragment)
chain: KPFFTRNPSELKGKFIHTKLRKSSRGFGFTVVGGDEPDEFLQIKSLVLDGPAALDGKMETGDVIVSVNDTCVLGHTHAQVVKIFQSIPIGASVDLELCRGYPLPFDPDDPNTSLVTSVAILDKEP
notes: source: E. coli BL21 DE3, purified (amylose column, Superdex 75 gel filtration)
B11: MAGI1-3/6 (MBP fusion of the third of the six PDZ domains of MAGI1) (domain or fragment)
chain: SHGYPNDTVSLASSIATQPELITVHIVKGPMGFGFTIADSPGGGGQRVKQIVDSPRCRGLKEGDLIVEVNKKNVQALTHNQVVDMLIECPKGSEVTLLVQRGGLPVPKKSPKSQPLERKDSQNSSQHSVSSHRSLHTASP
notes: as for B2
B13: SCRIB-3/4 (MBP fusion of the third of the four PDZ domains of SCRIB) (domain or fragment)
chain: EGPYPVEEIRLPRAGGPLGLSIVGGSDHSSHPFGVQEPGVFISKVLPRGLAARSGLRVGDRILAVNGQDVRDATHQEAVSALLRPCLELSLLVRRDP
notes: also called MBP-PDZ analyte SCRIB-3/4; source: E. coli BL21 DE3, purified (amylose column, Superdex 75 gel filtration)

Experiments:
Experiment in all cases: SPR
Conditions in all cases: both partners purified
[1] = target: B11
[2] = target: T1, 16E6_05 (short peptide of HPV16 early protein E6: GSGAG and the last five residues) (human papilloma virus 16, biotin at N-terminus)
T1 construct: also called 16E6 short; source: synthetic peptide (JPT Peptide Technologies)

[3] = target: T2, TAX1_05 (short peptide of the Trans-activating transcriptional regulatory protein of HTLV-1: GSGAG a (HTLV-1A, biotin at N-terminus))
T2 construct: source: synthetic peptide (JPT Peptide Technologies)

[4] = target: B2
[5] = target: B11; remark: listed apart in the source
[6] = target: B13
[7] = target: T3, SCRIB-34/4 (MBP fusion of the tandem of the third and fourth PDZ domains of SCRIB) (human, UniProt Q14160-1 997-1193)
T3 construct: also called MBP-PDZ analyte SCRIB-34/4; tandem PDZ construct; source: E. coli BL21 DE3, purified (amylose column, Superdex 75 gel filtration)
T3 sequence (looked up): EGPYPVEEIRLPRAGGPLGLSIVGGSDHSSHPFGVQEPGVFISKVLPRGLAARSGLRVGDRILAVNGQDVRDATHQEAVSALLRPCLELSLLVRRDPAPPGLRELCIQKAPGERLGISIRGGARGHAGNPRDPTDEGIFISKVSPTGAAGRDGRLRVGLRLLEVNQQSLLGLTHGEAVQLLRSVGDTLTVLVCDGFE

[8] = target: B13; remark: listed apart in the source
[9] = target: T3, SCRIB-34/4 (MBP fusion of the tandem of …); remark: listed apart in the source
[10] = target: B2; remark: listed apart in the source
[11] = target: B11; remark: listed apart in the source
[12] = target: B13; remark: listed apart in the source
[13] = target: T3, SCRIB-34/4 (MBP fusion of the tandem of …); remark: listed apart in the source
[14] = target: B13; remark: listed apart in the source
[15] = target: T3, SCRIB-34/4 (MBP fusion of the tandem of …); remark: listed apart in the source
[16] = target: B11; remark: listed apart in the source

B1: PTEN_10 (long peptide of PTEN: the last ten residues) (peptide)
peptide: Biotin-EDQHTQITKV
notes: also called PTEN long; source: synthetic peptide (JPT Peptide Technologies)
Kd [1]: 144 µM

B2
Kd [2]: 7 µM
Kd [3]: 33 µM

B3: DLL1_05 (short peptide of Delta-like protein 1: GSGAG and the last five residues) (peptide)
peptide: Biotin-GSGAGIATEV
notes: also called DLL1 short; source: synthetic peptide (JPT Peptide Technologies)
Kd [4]: 32 µM
Kd [5]: 246 µM
Kd [6]: 200 µM

B4: NET1_05 (short peptide of Neuroepithelial cell-transforming gene 1 protein: GSGAG and the last five residues) (peptide)
peptide: Biotin-GSGAGKETLV
notes: also called NET1 short; source: synthetic peptide (JPT Peptide Technologies)
Kd [4]: 62 µM
Kd [5]: 23 µM
Kd [6]: 308 µM
Kd [7]: 15 µM

B5: GLUT7_10 (long peptide of Solute carrier family 2, facilitated glucose transporter member 7: the last ten residues) (peptide)
peptide: Biotin-TASPAKETSF
notes: also called GLUT7 long; source: synthetic peptide (JPT Peptide Technologies)
Kd [8]: 45 µM
Kd [9]: 5 µM

B6: DLL1_10 (long peptide of Delta-like protein 1: the last ten residues) (peptide)
peptide: Biotin-KDECVIATEV
notes: also called DLL1 long; source: synthetic peptide (JPT Peptide Technologies)
Kd [5]: 238 µM
Kd [6]: 172 µM

B7: ARHGAP6_10 (long peptide of Rho GTPase-activating protein 6: the last ten residues) (peptide)
peptide: Biotin-NPDALPETLV
notes: also called ARHGAP6 long; source: synthetic peptide (JPT Peptide Technologies)
Kd [4]: 18 µM
Kd [5]: 41 µM
Kd [6]: 541 µM
Kd [7]: 28 µM

B8: TTC24_05 (short peptide of Tetratricopeptide repeat protein 24: GSGAG and the last five residues) (peptide)
peptide: Biotin-GSGAGICTIV
notes: also called TTC24 short; source: synthetic peptide (JPT Peptide Technologies)
Kd [10]: 65 µM
Kd [11]: 34 µM
Kd [12]: 239 µM
Kd [13]: 25 µM

B9: PTEN_05 (short peptide of PTEN: GSGAG and the last five residues) (peptide)
peptide: Biotin-GSGAGQITKV
notes: also called PTEN short; source: synthetic peptide (JPT Peptide Technologies)
Kd [1]: 453 µM

B10: FZD4_10 (long peptide of Frizzled-4: the last ten residues) (peptide)
peptide: Biotin-KPGKGSETVV
notes: also called FZD4 long; source: synthetic peptide (JPT Peptide Technologies)
Kd [10]: 23 µM

B11
Kd [3]: 75 µM

B12: CYSLTR2_10 (long peptide of Cysteinyl leukotriene receptor 2: the last ten residues) (peptide)
peptide: Biotin-SVWLRKETRV
notes: also called CYSLTR2 long; source: synthetic peptide (JPT Peptide Technologies)
Kd [10]: 4 µM
Kd [12]: 34 µM
Kd [13]: 15 µM

B13
Kd [2]: 12 µM
Kd [3]: 96 µM

B14: VANG2_10 (long peptide of Vang-like protein 2: the last ten residues) (peptide)
peptide: Biotin-VMRLQSETSV
notes: also called VANG2 long; source: synthetic peptide (JPT Peptide Technologies)
Kd [14]: 12 µM
Kd [15]: 5 µM

B15: GLUT7_05 (short peptide of Solute carrier family 2, facilitated glucose transporter member 7: GSGAG and the last five residues) (peptide)
peptide: Biotin-GSGAGKETSF
notes: also called GLUT7 short; source: synthetic peptide (JPT Peptide Technologies)
Kd [8]: 56 µM
Kd [9]: 5 µM

B16: GLAST_05 (short peptide of Excitatory amino acid transporter 1: GSGAG and the last five residues) (peptide)
peptide: Biotin-GSGAGSETKM
notes: also called GLAST short; source: synthetic peptide (JPT Peptide Technologies)
Kd [12]: 182 µM
Kd [13]: 179 µM

B17: TMEM215_05 (short peptide of Transmembrane protein 215: GSGAG and the last five residues) (peptide)
peptide: Biotin-GSGAGHETIV
notes: also called TMEM215 short; source: synthetic peptide (JPT Peptide Technologies)
Kd [16]: 116 µM
Kd [14]: 213 µM
Kd [15]: 15 µM
